Values joined by “and” are separate entries in the source; they are usually repeats but may differ in a detail not shown here. Equal entries are not always repeated.

Holding throughout (test): EMSA
Holding throughout (settings): 25 mM Tris pH 8.0, 100 mM KCl, 10 mM MgCl2, 10% glycerol, 1 mM TCEP, +/- 5 mM ATP-MgOAc2, 20 pM dsRNA, 30 min at 4 C; 5% native PAGE in 0.5x TBE at 4 C

The subject of data set [1] is AncD1D2 HEL-DUF (reconstructed ancestor (animal Dicer-1/Dicer-2, ML tree)).
Data set [2] concerns AncD1DEUT HEL-DUF (reconstructed ancestor (deuterostome Dicer-1, ML tree)).
Data set [3] deals with AncD1LOPH/DEUT HEL-DUF (reconstructed ancestor (lophotrochozoan/deuterostome Dicer-1, ML tree)).
Data set [4] concerns AncD1ARTH/LOPH/DEUT HEL-DUF (reconstructed ancestor (arthropod/lophotrochozoan/deuterostome Dicer-1, ML tree)).
Data set [5] has as its system AncD1VERT HEL-DUF (reconstructed ancestor (vertebrate Dicer-1, ML tree)).

“GGGAAGCUCAGAAUAUUGCACAAGUAGAGCUUCUCGAUCCCC / GGAUCGAGAAGCUCUACUUGUGCAAUAUUCUGAGCUUCCCGG [42-bp 3'ovr dsRNA]”: the Kd is 6.5 nM and 15.9 nM in data set [1]; 140 nM and 150 nM in data set [2]; 49 nM and 90.8 nM in data set [3]; 40.1 nM and 17.3 nM in data set [4]; 538 nM and 500 nM in data set [5].

As for “GGGAAGCUCAGAAUAUUGCACAAGUAGAGCUUCUCGAUCCCC / GGGGAUCGAGAAGCUCUACUUGUGCAAUAUUCUGAGCUUCCC [42-bp BLT dsRNA]”, the Kd in data set [1] was 3.4 nM and 6.4 nM; in data set [2] it was 145 nM and 132 nM; in data set [3], 38 nM and 60.9 nM; in data set [4] it was 23.8 nM and 17.5 nM; in data set [5], 502 nM and 592 nM.

The record behind these values is PMC10159624.
